Measured values taken from patent publication US20210275684A1 (MONOJUL, published 2021).
Substitutions are numbered along the chain they refer to. Numbers in names are those of the source. Blank lines part the entries; values can stand above or below the binder they belong to.

How the values were obtained:
[1] = target: T1, recombinant human folate receptor beta (FRβ), residues 22 to 236, with ADPG at the N-terminus and five … (human, UniProt P14207 22-236); assay: SPR, Biacore T200, antibody captured through Fc, hFRβ as analyte
T1 construct: also called hFRβ; recombinant FRβ
Procedure: (§1) To begin the analysis of the affinity matured antibodies, AS04498 was selected for further analysis. Antibody affinity to antigen protein was determined using a Surface Plasmon Resonance (SPR) biosensor, Biacore T200 (GE Healthcare). Antibody was immobilized on the sensor chip through Fc capture method. Antigen protein was used as the analyte. The data of dissociation (kd) and association (k0) rate constants were obtained using Biacore T200 evaluation software. The equilibrium dissociation constants (KD) were calculated from the ratio of kd over k0.

[2] = target: T1, recombinant human folate receptor beta …; assay: SPR, Biacore T200; affinity relative to the chimeric IgG control
Procedure: as §1

[3] = target: T1, recombinant human folate receptor beta …; assay: affinity measurement of full length IgG on recombinant FRβ (FIGS. 6A-6C, summarised in Table 5); reference: Chimeric IgG. The sentence says 'higher' of the KD, but the KD is lower, so the affinity is higher
Procedure: as §1

[4] = target: T1, recombinant human folate receptor beta …; assay: combinatorial library screen: ELISA on coated antigen, then affinity (dissociation rate) ranking

T1 sequence (P14207 other isoform, or with tags, fused parts or gaps): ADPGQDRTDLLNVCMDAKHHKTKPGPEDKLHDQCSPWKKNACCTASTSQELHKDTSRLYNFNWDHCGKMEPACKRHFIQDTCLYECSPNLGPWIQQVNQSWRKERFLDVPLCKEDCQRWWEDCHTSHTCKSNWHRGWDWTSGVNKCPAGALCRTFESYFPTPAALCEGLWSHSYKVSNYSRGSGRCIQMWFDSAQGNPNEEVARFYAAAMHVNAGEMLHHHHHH

B1: AS04498 antibody (affinity matured, full length IgG) (antibody, V domains shown)
VH: EVQLVQSGAEVKKPGASVKVSCKASGYTFTYYAMHWVRQAPGQRLEWMGWINAGNGNTKYSQKFQGRVTITRDTSASTAYMELSSLRSEDTAVYYCARDISYGSFDYWGQGTLVTVSS
VL: SSELTQDPAVSVALGQTVRITCQGDSLRSNYANWYQQKPGQAPVLVIYGQFNRPSGIPDRFSGSSSGNTASLTITGAQAADEADYYCDSRVSTGIHVVFGGGTKLTVLG
notes: also called ASO4498; AM
Kd [1]: 2.5 nM
koff [1]: 0.000144 s⁻¹
kon [1]: 57700 M⁻¹ s⁻¹
Fold Increase [2]: 38 fold
fold change of KD against the chimeric IgG control [3]: 38 fold

B2: M909 IgG (parent monoclonal antibody m909, full length IgG) (antibody, V domains shown, not shown: a dimerising Fc or GST)
VH: B1 VH with Y31S
VL: B1 VL with F51N, I95N
notes: also called m909 antibody
Kd [1]: 92.4 nM
koff [1]: 0.00592 s⁻¹
kon [1]: 64100 M⁻¹ s⁻¹

B3: Clone I (affinity matured antibody from the combinatorial library) (Fab, V domains shown)
VH: B1 VH with Y31I
VL: B1 VL with F51N, R53L
notes: Format in the screen not expressly stated
binding result [4]: binds

B7: Clone F (affinity matured antibody from the combinatorial library) (Fab, V domains shown)
VH: B1 VH
VL: B1 VL with R53L, I95N
notes: as for B3
binding result [4]: binds

B8: Clone P (affinity matured antibody from the combinatorial library) (Fab, V domains shown)
VH: B1 VH with Y31I, N57F
VL: B1 VL with F51N, I95N
notes: as for B3
binding result [4]: binds

B9: Clone D (affinity matured antibody from the combinatorial library) (Fab, V domains shown)
VH: B1 VH
VL: B1 VL with R53L
notes: as for B3
binding result [4]: binds

B11: Clone M (affinity matured antibody from the combinatorial library) (Fab, V domains shown)
VH: B1 VH with Y31I
VL: B1 VL with R53L, I95N
notes: as for B3
binding result [4]: binds

B13: Clone O (affinity matured antibody from the combinatorial library) (Fab, V domains shown)
VH: B1 VH
VL: B1 VL with F51N, R53L, I95N
notes: as for B3
binding result [4]: binds

B14: Clone H (affinity matured antibody from the combinatorial library) (Fab, V domains shown)
VH: B1 VH with Y31I
VL: B1 VL
notes: as for B3
binding result [4]: binds

B15: Clone B (affinity matured antibody from the combinatorial library) (Fab, V domains shown)
VH: B1 VH with A16V, N57F
VL: B1 VL with R53L
notes: A16V was placed on the heavy chain; Format in the screen not expressly stated
binding result [4]: binds

Second part, the binder after the results:

binding result [4]: binds
B4: Clone C (affinity matured antibody from the combinatorial library) (Fab, V domains shown)
VH: B1 VH with N57F
VL: B1 VL
notes: as for B3

binding result [4]: binds
B5: Clone G (affinity matured antibody from the combinatorial library) (Fab, V domains shown)
VH: B1 VH with Y31I
VL: B1 VL with R53L
notes: as for B3

binding result [4]: binds
B6: Clone A (affinity matured antibody from the combinatorial library) (Fab, V domains shown)
VH: B1 VH with N57F
VL: B1 VL with R53L
notes: as for B3

binding result [4]: binds
B10: Clone L (affinity matured antibody from the combinatorial library) (Fab, V domains shown)
VH: B1 VH with Y31I
VL: B1 VL with I95N
notes: as for B3

binding result [4]: binds
B12: Clone J (affinity matured antibody from the combinatorial library) (Fab, V domains shown)
VH: B1 VH with N57F
VL: B1 VL with F51N
notes: as for B3
